Biological target: formyl peptide receptor (FPR1) on U87 astrocytoma cells (human (endogenous in U87)) (UniProt P21462)
Experiment: flow cytometry on cells

Sequence of UniProt P21462 (P21462 whole entry): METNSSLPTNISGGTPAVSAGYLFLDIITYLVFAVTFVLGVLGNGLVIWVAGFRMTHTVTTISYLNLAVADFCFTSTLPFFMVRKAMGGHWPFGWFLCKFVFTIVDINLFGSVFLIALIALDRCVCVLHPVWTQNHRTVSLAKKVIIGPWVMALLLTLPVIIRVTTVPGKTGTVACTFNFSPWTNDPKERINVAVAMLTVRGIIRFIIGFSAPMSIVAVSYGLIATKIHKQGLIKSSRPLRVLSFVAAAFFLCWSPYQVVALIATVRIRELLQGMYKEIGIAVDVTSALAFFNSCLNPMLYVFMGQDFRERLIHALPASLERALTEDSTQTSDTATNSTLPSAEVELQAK

Work on “Chemotaxis Inhibitory Protein of S. aureus (CHIPS) (from UniProt A6QIG7 29-149) (natural protein)” yielded a percent inhibition of fMLF-FITC binding at 100 ug/ml CHIPS of 81%.

— publication PMC3593554
